Assay results as given in doi:10.1101/2023.06.28.546941 (bioRxiv, 2023).
One block for each binder: values may come before it.

Experiments:
[1] = biological target: T1, MEF2 MADS plus MEF2 domain (amino acids 1-90) (Drosophila, UniProt P40791 1-90); assay: pull-down
T1 sequence (looked up): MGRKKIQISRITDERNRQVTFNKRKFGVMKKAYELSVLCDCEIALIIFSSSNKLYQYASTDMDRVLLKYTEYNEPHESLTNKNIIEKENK

MEF2 = biological target: T2, MEF2 (UniProt P40791 1-540); assay: competition
T2 sequence: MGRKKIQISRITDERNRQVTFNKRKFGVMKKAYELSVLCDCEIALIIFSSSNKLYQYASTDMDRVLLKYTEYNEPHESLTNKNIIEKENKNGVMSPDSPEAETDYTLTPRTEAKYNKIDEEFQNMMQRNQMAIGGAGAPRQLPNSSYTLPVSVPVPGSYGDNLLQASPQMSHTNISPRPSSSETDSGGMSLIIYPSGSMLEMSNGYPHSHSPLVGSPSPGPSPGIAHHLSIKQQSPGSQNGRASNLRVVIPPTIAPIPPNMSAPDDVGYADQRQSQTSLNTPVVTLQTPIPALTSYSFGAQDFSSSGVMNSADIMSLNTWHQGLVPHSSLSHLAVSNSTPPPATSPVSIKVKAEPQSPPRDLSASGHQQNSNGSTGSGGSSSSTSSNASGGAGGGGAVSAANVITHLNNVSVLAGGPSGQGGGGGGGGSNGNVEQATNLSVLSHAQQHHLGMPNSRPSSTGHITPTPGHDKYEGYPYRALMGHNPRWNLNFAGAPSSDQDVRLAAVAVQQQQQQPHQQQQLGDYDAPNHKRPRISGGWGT

binding result [1]: binds
B1: MBP-fused Tin homeodomain (amino acids 301-360) (domain or fragment, Drosophila, UniProt P22711 301-360, looked up)
chain: KRKPRVLFSQAQVLELECRFRLKKYLTGAEREIIAQKLNLSATQVKIWFQNRRYKSKRGD

B2: M1+T1 M1mut (dsDNA)
DNA 1: GGTGTCGTCTGTTGAAGTGTGAACATTAATGCCTAGATCTAAAGCGATAAAA
DNA 2: GGTTTTATCGCTTTAGATCTAGGCATTAATGTTCACACTTCAACAGACGACA
binding result (MEF2): no binding
